Results: US20190015483A1 (CSL BEHRING RECOMBINANT FACILITY, published 2019)

T1: recombinant Factor VIII (CSL627, rVIII-SingleChain) (Homo sapiens (Human), UniProt P00451 20-2351)
T1 construct: also called FVIII
T1 sequence: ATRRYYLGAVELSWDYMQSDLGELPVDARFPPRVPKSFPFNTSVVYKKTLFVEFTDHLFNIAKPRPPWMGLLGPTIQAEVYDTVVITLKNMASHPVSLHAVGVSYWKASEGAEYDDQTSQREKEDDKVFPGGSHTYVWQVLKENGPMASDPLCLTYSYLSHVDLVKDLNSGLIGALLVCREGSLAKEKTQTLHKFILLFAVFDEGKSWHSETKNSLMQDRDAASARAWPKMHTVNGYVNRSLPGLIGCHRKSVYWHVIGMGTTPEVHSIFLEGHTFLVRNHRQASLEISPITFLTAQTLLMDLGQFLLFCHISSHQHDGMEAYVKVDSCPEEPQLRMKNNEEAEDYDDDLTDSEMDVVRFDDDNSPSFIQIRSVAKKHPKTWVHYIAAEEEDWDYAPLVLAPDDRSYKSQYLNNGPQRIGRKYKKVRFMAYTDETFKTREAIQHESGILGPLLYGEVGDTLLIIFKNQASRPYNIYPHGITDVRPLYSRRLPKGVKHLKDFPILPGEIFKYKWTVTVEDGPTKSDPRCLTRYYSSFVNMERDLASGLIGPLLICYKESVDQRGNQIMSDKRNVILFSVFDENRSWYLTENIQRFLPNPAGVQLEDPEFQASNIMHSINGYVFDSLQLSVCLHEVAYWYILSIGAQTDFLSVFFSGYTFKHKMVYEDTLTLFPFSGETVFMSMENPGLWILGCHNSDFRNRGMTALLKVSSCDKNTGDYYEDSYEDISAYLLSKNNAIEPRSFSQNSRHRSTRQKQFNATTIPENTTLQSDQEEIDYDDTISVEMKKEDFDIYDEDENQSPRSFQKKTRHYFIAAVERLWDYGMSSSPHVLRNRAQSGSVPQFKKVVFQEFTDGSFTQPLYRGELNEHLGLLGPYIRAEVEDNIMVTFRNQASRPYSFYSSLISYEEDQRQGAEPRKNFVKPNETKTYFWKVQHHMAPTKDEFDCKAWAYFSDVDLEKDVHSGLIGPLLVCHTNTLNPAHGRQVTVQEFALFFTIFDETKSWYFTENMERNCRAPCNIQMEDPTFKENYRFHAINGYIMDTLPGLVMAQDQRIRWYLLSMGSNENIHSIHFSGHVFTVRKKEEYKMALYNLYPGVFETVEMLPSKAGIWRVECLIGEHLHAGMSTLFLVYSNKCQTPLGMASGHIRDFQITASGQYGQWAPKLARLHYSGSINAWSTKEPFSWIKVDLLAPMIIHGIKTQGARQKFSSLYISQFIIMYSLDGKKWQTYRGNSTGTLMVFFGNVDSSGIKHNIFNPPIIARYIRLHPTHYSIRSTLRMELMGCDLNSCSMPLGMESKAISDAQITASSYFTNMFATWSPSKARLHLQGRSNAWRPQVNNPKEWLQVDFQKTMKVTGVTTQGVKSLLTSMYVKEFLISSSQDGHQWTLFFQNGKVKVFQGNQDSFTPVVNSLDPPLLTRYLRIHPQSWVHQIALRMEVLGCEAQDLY


Target: T1, recombinant Factor VIII (CSL627, …)
Experiment: SPR, anti-His capture
Method: Binding kinetics were investigated by surface plasmon resonance using a Biacore 4000 biosensor at 37° C. Each mutant was captured from cell culture medium to a density of 40-150 RU on a CM-5 sensor chip pre-immobilised with anti-His antibody (14,000 RU). In an initial screening study, FVIII was injected over the captured mutants for 5 minutes at 1 nM and dissociation monitored for 5 minutes.
All sensorgrams were double referenced by subtraction of signals from a reference spot (containing only immobilised anti His antibody) and from a blank injection. Binding kinetics were determined by fitting the double referenced sensorgrams to a 1:1 kinetic model.

Binder	Kd [nM]	koff [s⁻¹]	kon [M⁻¹ s⁻¹]
Hu-vWF[764-1270]-8His S764P-K773T (other) PLSCRPPMVTLVCPADNLRAEGLECTKTCQNYDLECMSMGCVSGCLCPPGMVRHENRCVALERCPCFHQGKEYAPGETVKIGCNTCVCRDRKWNCTDHVCDATCSTIGMAHYLTFDGLKYLFPGECQYVLVQDYCGSNPGTFRILVGNKGCSHPSVKCKKRVTILVEGGEIELFDGEVNVKRPMKDETHFEVVESGRYIILLLGKALSVVWDRHLSISVVLKQTYQEKVCGLCGNFDGIQNNDLTSSNLQVEEDPVDFGNSWKVSSQCADTRKVPLDSSPATCHNNIMKQTMVDSSCRILTSDVFQDCNKLVDPEPYLDVCIYDTCSCESIGDCACFCDTIAAYAHVCAQHGKVVTWRTATLCPQSCEERNLRENGYECEWRYNSCAPACQVTCQHPEPLACPVQCVEGCHAHCPPGKILDELLQTCVDPEDCPVCEVAGRRFASGKKVTLNPSDPEHCQICHCDVVNLTCEACQEPGGLVVPPTDAPVSPTTLYVEDISEPPLHDFHHHHHHHH	0.016	7.5e-05	4.68e+06
Hu-vWF[764-1270]-8His S764P-L765F (other) PFSCRPPMVKLVCPADNLRAEGLECTKTCQNYDLECMSMGCVSGCLCPPGMVRHENRCVALERCPCFHQGKEYAPGETVKIGCNTCVCRDRKWNCTDHVCDATCSTIGMAHYLTFDGLKYLFPGECQYVLVQDYCGSNPGTFRILVGNKGCSHPSVKCKKRVTILVEGGEIELFDGEVNVKRPMKDETHFEVVESGRYIILLLGKALSVVWDRHLSISVVLKQTYQEKVCGLCGNFDGIQNNDLTSSNLQVEEDPVDFGNSWKVSSQCADTRKVPLDSSPATCHNNIMKQTMVDSSCRILTSDVFQDCNKLVDPEPYLDVCIYDTCSCESIGDCACFCDTIAAYAHVCAQHGKVVTWRTATLCPQSCEERNLRENGYECEWRYNSCAPACQVTCQHPEPLACPVQCVEGCHAHCPPGKILDELLQTCVDPEDCPVCEVAGRRFASGKKVTLNPSDPEHCQICHCDVVNLTCEACQEPGGLVVPPTDAPVSPTTLYVEDISEPPLHDFHHHHHHHH	0.0373	0.000632	1.69e+07
Hu-vWF[764-1270]-8His S764P-K773Y (other) PLSCRPPMVYLVCPADNLRAEGLECTKTCQNYDLECMSMGCVSGCLCPPGMVRHENRCVALERCPCFHQGKEYAPGETVKIGCNTCVCRDRKWNCTDHVCDATCSTIGMAHYLTFDGLKYLFPGECQYVLVQDYCGSNPGTFRILVGNKGCSHPSVKCKKRVTILVEGGEIELFDGEVNVKRPMKDETHFEVVESGRYIILLLGKALSVVWDRHLSISVVLKQTYQEKVCGLCGNFDGIQNNDLTSSNLQVEEDPVDFGNSWKVSSQCADTRKVPLDSSPATCHNNIMKQTMVDSSCRILTSDVFQDCNKLVDPEPYLDVCIYDTCSCESIGDCACFCDTIAAYAHVCAQHGKVVTWRTATLCPQSCEERNLRENGYECEWRYNSCAPACQVTCQHPEPLACPVQCVEGCHAHCPPGKILDELLQTCVDPEDCPVCEVAGRRFASGKKVTLNPSDPEHCQICHCDVVNLTCEACQEPGGLVVPPTDAPVSPTTLYVEDISEPPLHDFHHHHHHHH	0.0835	0.00136	1.63e+07
Hu-vWF[764-1270]-8His S764P-L765I (other) PISCRPPMVKLVCPADNLRAEGLECTKTCQNYDLECMSMGCVSGCLCPPGMVRHENRCVALERCPCFHQGKEYAPGETVKIGCNTCVCRDRKWNCTDHVCDATCSTIGMAHYLTFDGLKYLFPGECQYVLVQDYCGSNPGTFRILVGNKGCSHPSVKCKKRVTILVEGGEIELFDGEVNVKRPMKDETHFEVVESGRYIILLLGKALSVVWDRHLSISVVLKQTYQEKVCGLCGNFDGIQNNDLTSSNLQVEEDPVDFGNSWKVSSQCADTRKVPLDSSPATCHNNIMKQTMVDSSCRILTSDVFQDCNKLVDPEPYLDVCIYDTCSCESIGDCACFCDTIAAYAHVCAQHGKVVTWRTATLCPQSCEERNLRENGYECEWRYNSCAPACQVTCQHPEPLACPVQCVEGCHAHCPPGKILDELLQTCVDPEDCPVCEVAGRRFASGKKVTLNPSDPEHCQICHCDVVNLTCEACQEPGGLVVPPTDAPVSPTTLYVEDISEPPLHDFHHHHHHHH	0.0118	9.52e-05	8.08e+06
Hu-vWF[764-1270]-8His S764P-K773V (other) PLSCRPPMVVLVCPADNLRAEGLECTKTCQNYDLECMSMGCVSGCLCPPGMVRHENRCVALERCPCFHQGKEYAPGETVKIGCNTCVCRDRKWNCTDHVCDATCSTIGMAHYLTFDGLKYLFPGECQYVLVQDYCGSNPGTFRILVGNKGCSHPSVKCKKRVTILVEGGEIELFDGEVNVKRPMKDETHFEVVESGRYIILLLGKALSVVWDRHLSISVVLKQTYQEKVCGLCGNFDGIQNNDLTSSNLQVEEDPVDFGNSWKVSSQCADTRKVPLDSSPATCHNNIMKQTMVDSSCRILTSDVFQDCNKLVDPEPYLDVCIYDTCSCESIGDCACFCDTIAAYAHVCAQHGKVVTWRTATLCPQSCEERNLRENGYECEWRYNSCAPACQVTCQHPEPLACPVQCVEGCHAHCPPGKILDELLQTCVDPEDCPVCEVAGRRFASGKKVTLNPSDPEHCQICHCDVVNLTCEACQEPGGLVVPPTDAPVSPTTLYVEDISEPPLHDFHHHHHHHH	0.0101	0.000157	1.55e+07

More lines, in order of falling Kd, values ahead:

Kd [nM]	koff [s⁻¹]	kon [M⁻¹ s⁻¹]	Binder
0.906	0.0278	3.07e+07	Hu-vWF[764-1270]-8His S764P-L765A (other) PASCRPPMVKLVCPADNLRAEGLECTKTCQNYDLECMSMGCVSGCLCPPGMVRHENRCVALERCPCFHQGKEYAPGETVKIGCNTCVCRDRKWNCTDHVCDATCSTIGMAHYLTFDGLKYLFPGECQYVLVQDYCGSNPGTFRILVGNKGCSHPSVKCKKRVTILVEGGEIELFDGEVNVKRPMKDETHFEVVESGRYIILLLGKALSVVWDRHLSISVVLKQTYQEKVCGLCGNFDGIQNNDLTSSNLQVEEDPVDFGNSWKVSSQCADTRKVPLDSSPATCHNNIMKQTMVDSSCRILTSDVFQDCNKLVDPEPYLDVCIYDTCSCESIGDCACFCDTIAAYAHVCAQHGKVVTWRTATLCPQSCEERNLRENGYECEWRYNSCAPACQVTCQHPEPLACPVQCVEGCHAHCPPGKILDELLQTCVDPEDCPVCEVAGRRFASGKKVTLNPSDPEHCQICHCDVVNLTCEACQEPGGLVVPPTDAPVSPTTLYVEDISEPPLHDFHHHHHHHH
0.555	0.00642	1.16e+07	Hu-vWF[764-1270]-8His S764P-L765H (other) PHSCRPPMVKLVCPADNLRAEGLECTKTCQNYDLECMSMGCVSGCLCPPGMVRHENRCVALERCPCFHQGKEYAPGETVKIGCNTCVCRDRKWNCTDHVCDATCSTIGMAHYLTFDGLKYLFPGECQYVLVQDYCGSNPGTFRILVGNKGCSHPSVKCKKRVTILVEGGEIELFDGEVNVKRPMKDETHFEVVESGRYIILLLGKALSVVWDRHLSISVVLKQTYQEKVCGLCGNFDGIQNNDLTSSNLQVEEDPVDFGNSWKVSSQCADTRKVPLDSSPATCHNNIMKQTMVDSSCRILTSDVFQDCNKLVDPEPYLDVCIYDTCSCESIGDCACFCDTIAAYAHVCAQHGKVVTWRTATLCPQSCEERNLRENGYECEWRYNSCAPACQVTCQHPEPLACPVQCVEGCHAHCPPGKILDELLQTCVDPEDCPVCEVAGRRFASGKKVTLNPSDPEHCQICHCDVVNLTCEACQEPGGLVVPPTDAPVSPTTLYVEDISEPPLHDFHHHHHHHH
0.257	0.00321	1.25e+07	Hu-vWF[764-1270]-8His S764P-K773W (other) PLSCRPPMVWLVCPADNLRAEGLECTKTCQNYDLECMSMGCVSGCLCPPGMVRHENRCVALERCPCFHQGKEYAPGETVKIGCNTCVCRDRKWNCTDHVCDATCSTIGMAHYLTFDGLKYLFPGECQYVLVQDYCGSNPGTFRILVGNKGCSHPSVKCKKRVTILVEGGEIELFDGEVNVKRPMKDETHFEVVESGRYIILLLGKALSVVWDRHLSISVVLKQTYQEKVCGLCGNFDGIQNNDLTSSNLQVEEDPVDFGNSWKVSSQCADTRKVPLDSSPATCHNNIMKQTMVDSSCRILTSDVFQDCNKLVDPEPYLDVCIYDTCSCESIGDCACFCDTIAAYAHVCAQHGKVVTWRTATLCPQSCEERNLRENGYECEWRYNSCAPACQVTCQHPEPLACPVQCVEGCHAHCPPGKILDELLQTCVDPEDCPVCEVAGRRFASGKKVTLNPSDPEHCQICHCDVVNLTCEACQEPGGLVVPPTDAPVSPTTLYVEDISEPPLHDFHHHHHHHH
